The values below come from patent publication US20180320179A1, “LANOSTEROL 14-ALPHA DEMETHYLASE (CYP51) NUCLEIC ACID MOLECULES THAT CONTROL PATHOGENS” (Dow AgroSciences LLC, priority 2017, published 2018).

Sequences and labels used below:
B1: MgCyp51-T3: dsRNA tile of Zymoseptoria tritici Cyp51, 230 bp, location 450-679 (nucleic acid, listed as Zymoseptoria tritici)
chain: CGTCAAGTACGGCCTCACAACCTCTGCCCTCCAGTCCTACGTGACCTTGATCGCCGCCGAGACCCGCCAGTTCTTCGACCGCAACAACCCTCATAAGAAGTTCGCATCGACCAGCGGCACGATCGATCTCCCACCAGCCCTCGCCGAACTTACGATCTATACTGCCAGCCGATCATTGCAAGGAAAGGAAGTCCGCGAGGGCTTCGACTCGTCTTTCGCGGACCTCTACC
B2: MgCyp51-T7: dsRNA tile of Zymoseptoria tritici Cyp51, 111 bp, location 1490-1600 (nucleic acid, listed as Zymoseptoria tritici)
chain: CGACGATGGTTCGCGATTTCAAGTTTTACAATGTGGATGGCAGCGACAACGTGGTGGGTACGGATTACAGCAGTTTGTTCAGCCGGCCGCTGTCGCCGGCAGTAGTAAAGT
modifications: long dsRNA tile, purified, chemistry not given here
B3: MgCyp51-T1: dsRNA tile of Zymoseptoria tritici Cyp51, 232 bp, location 166-397 (nucleic acid, listed as Zymoseptoria tritici)
chain: GTATTCCACTGGGTGCCCTTCATCGGAAGCACCATCACATACGGCATCGACCCATACAAGTTCTTCTTCTCCTGTCGGGAAAAGTATGGAGATGTCTTTACATTCATCCTGCTGGGAAAGAAGACGACGGTGTGCTTGGGCACCAAGGGCAATGATTTTATTTTGAATGGAAAACTGAAGGACGTCAACGCGGAGGAGATATACAGCCCGCTGACCACTCCTGTCTTTGGCA
B4: MgCyp51-T4: dsRNA tile of Zymoseptoria tritici Cyp51, 178 bp, location 647-824 (nucleic acid, listed as Zymoseptoria tritici)
chain: AGGGCTTCGACTCGTCTTTCGCGGACCTCTACCACTACCTCGATATGGGATTCACACCGATCAACTTTATGCTTCCGTGGGCGCCCCTTCCCCAGAACCGACGCCGCGATTATGCGCAGAAGAAGATGTCCGAGACATACATGTCGATCATTCAGAAGAGACGAGAGTCCAAAACGGG
B5: MgCyp51-T2: dsRNA tile of Zymoseptoria tritici Cyp51, 165 bp, location 48-212 (nucleic acid, listed as Zymoseptoria tritici)
chain: CCAGACCAGCCTCTGGAAACTTGTCGGACTTGGATTCCTCGCCTTCAGCACGCTCGCCATCCTCCTCAATGTCCTCTCACAACTTCTCTTCCGTGGCAAGTTGTCCGATCCGCCACTCGTATTCCACTGGGTGCCCTTCATCGGAAGCACCATCACATACGGCAT
B6: MgCyp51-T9: dsRNA tile of Zymoseptoria tritici Cyp51, 172 bp, location 1-172 (nucleic acid, listed as Zymoseptoria tritici)
chain: ATGGGTCTCCTCCAGGAAGTCCTCGCGCAGTTCGACGCGCAATTCGGCCAGACCAGCCTCTGGAAACTTGTCGGACTTGGATTCCTCGCCTTCAGCACGCTCGCCATCCTCCTCAATGTCCTCTCACAACTTCTCTTCCGTGGCAAGTTGTCCGATCCGCCACTCGTATTCC
modifications: double-stranded RNA

One series has as its system Zymoseptoria tritici (SEPTTR-184). Put plainly: Cyp51 dsRNA tile (fragment) foliar application bioassay (Example 6). It is filed as in vivo. The conditions noted are these: 1 day protectant; calculated from disease control. As to the method:
The 200 ppm concentration for each treatment was prepared by adding the calculated volume of the corresponding dsRNA solution in TE buffer. […] A non-target dsRNA control (YFP), a TE/phosphate buffer control, disease pressure control, and clean plant control were included.
These plants were inoculated with an aqueous spore suspension of Zymoseptoria tritici either prior to or after fungicidal treatments. After inoculation the plants were kept in 100% relative humidity to allow spores to germinate and infect the leaves. The plants were then transferred to a greenhouse set at 20° C. until disease developed.
As for B1, the “ED50 (ppm) SEPTTR-184 1DP” value is reported as under 3.125 ppm and the “ED80 (ppm) SEPTTR-184 1DP” value was over 200 ppm.
On to B2, for which the “ED50 (ppm) SEPTTR-184 1DP” value is given as 3.125 ppm and the “ED80 (ppm) SEPTTR-184 1DP” value is given as over 200 ppm.
With B3, the “ED50 (ppm) SEPTTR-184 1DP” value is listed as under 3.125 ppm and the “ED80 (ppm) SEPTTR-184 1DP” value is on record as over 200 ppm.
In the same order, the values of B4 are under 3.125 ppm and 200 ppm.
In the same order, the values of B5 are under 3.125 ppm and over 200 ppm.
For the molecule B6, the “ED50 (ppm) SEPTTR-184 1DP” value is under 3.125 ppm and the “ED80 (ppm) SEPTTR-184 1DP” value is over 200 ppm.

Still in this series, the particulars now being: 1 day protectant; rate 3.125 ppm; average of 2 trials.
B1: the “Disease Control (%) SEPTTR-184 1DP” value was determined as 64%.
In the case of B2, the “Disease Control (%) SEPTTR-184 1DP” value is 50%.
For the molecule B3, the “Disease Control (%) SEPTTR-184 1DP” value is reported as 65%.
The same measure, in the same setting: the value for B4 was 53%.
On the same count and under the same terms, the value for B5 was 53%; that for B6 was 53%.

Still in this series, the particulars now being: 1 day protectant; rate 12.5 ppm; average of 2 trials.
Take B1: the “Disease Control (%) SEPTTR-184 1DP” value amounted to 72%.
As to B2, the “Disease Control (%) SEPTTR-184 1DP” value was 64%.
For the molecule B3, the “Disease Control (%) SEPTTR-184 1DP” value came to 68%.
The same measure, in the same setting: next, B4: 65%.
On the same count and under the same terms, the value for B5 was 67%.
On to B6, for which the “Disease Control (%) SEPTTR-184 1DP” value was 53%.

The same series, now with this note: 1 day protectant; rate 50 ppm; average of 2 trials.
B1: the “Disease Control (%) SEPTTR-184 1DP” value is 69%.
Still for that read-out and setting: the value for B2 was 66%; that for B3 was 70%.
The same measure, in the same setting: next, B4: 61%.
Same read-out and setting: next, B5: 70%; B6: 57%.

Still in this series, the particulars now being: 1 day protectant; rate 200 ppm; average of 2 trials.
On to B1, for which the “Disease Control (%) SEPTTR-184 1DP” value was determined as 74%.
Same read-out and setting: the value for B2 was 70%; that for B3 was 77%; that for B4 was 80%.
Consider B5, for which the “Disease Control (%) SEPTTR-184 1DP” value was 75%.
As to B6, the “Disease Control (%) SEPTTR-184 1DP” value was 76%.

Still in this series, the particulars now being: 3 days curative; calculated from disease control.
Regarding B1, the “ED50 (ppm) SEPTTR-184 3DC” value was under 3.125 ppm and the “ED80 (ppm) SEPTTR-184 3DC” value is on record as over 200 ppm.
Turning to B2, the “ED50 (ppm) SEPTTR-184 3DC” value was 5.331 ppm and the “ED80 (ppm) SEPTTR-184 3DC” value is on record as over 200 ppm.
For B3, in that order: under 3.125 ppm and over 200 ppm.
For B4, in that order: under 3.125 ppm and over 200 ppm.
With B5, the “ED50 (ppm) SEPTTR-184 3DC” value is reported as under 3.125 ppm and the “ED80 (ppm) SEPTTR-184 3DC” value is 125 ppm.
As for B6, the “ED50 (ppm) SEPTTR-184 3DC” value is recorded as under 3.125 ppm and the “ED80 (ppm) SEPTTR-184 3DC” value is over 200 ppm.

The same series, now with this note: 3 days curative; rate 3.125 ppm; average of 2 trials.
B1: the “Disease Control (%) SEPTTR-184 3DC” value stood at 73%.
On the same count and under the same terms, the value for B2 was 46%; that for B3 was 71%.
On to B4, for which the “Disease Control (%) SEPTTR-184 3DC” value came out at 59%.
Regarding B5, the “Disease Control (%) SEPTTR-184 3DC” value came to 76%.
Still for that read-out and setting: the value for B6 was 52%.

The same series, now with this note: 3 days curative; rate 12.5 ppm; average of 2 trials.
As to B1, the “Disease Control (%) SEPTTR-184 3DC” value turned out to be 73%.
For the molecule B2, the “Disease Control (%) SEPTTR-184 3DC” value is reported as 63%.
In the case of B3, the “Disease Control (%) SEPTTR-184 3DC” value amounted to 78%.
Turning to B4, the “Disease Control (%) SEPTTR-184 3DC” value was 52%.
B5: the “Disease Control (%) SEPTTR-184 3DC” value is reported as 72%.
On the same count and under the same terms, next, B6: 46%.

The same series, now with this note: 3 days curative; rate 50 ppm; average of 2 trials.
With B1, the “Disease Control (%) SEPTTR-184 3DC” value worked out at 72%.
For the molecule B2, the “Disease Control (%) SEPTTR-184 3DC” value is given as 66%.
On the same count and under the same terms, the value for B3 was 68%; that for B4 was 67%.
Consider B5, for which the “Disease Control (%) SEPTTR-184 3DC” value is listed as 76%.
Same read-out and setting: next, B6: 65%.

The series is the same for the next values; noted with them: 3 days curative; rate 200 ppm; average of 2 trials.
On to B1, for which the “Disease Control (%) SEPTTR-184 3DC” value turned out to be 76%.
Still for that read-out and setting: the value for B2 was 72%.
Still for that read-out and setting: the value for B3 was 70%; that for B4 was 75%.
The same measure, in the same setting: next, B5: 84%.
B6: the “Disease Control (%) SEPTTR-184 3DC” value came out at 72%.

Still in this series, the particulars now being: curative test.
On to B5, for which the “curative activity against SEPTTR (ranking)” value is on record as “provided the best curative activity against SEPTTR”.

Still in this series, the particulars now being: fragments compared with each other.
Consider B5, for which the “level of control among the fragments (ranking)” value was “provided the best level of control”.
